{"source": "patent US20210087238A1", "about": "“CELL PENETRATING PEPTIDES AND RELATED COMPOSITIONS AND METHODS” (Phylogica Limited, priority 2017, published 2021)", "molecules": {"B1": {"name": "Omomyc: Myc dominant negative peptide (protein)", "chain": "GPGGSGTGATSDTEENVKRRTHNVLERQRRNELKRSFFALRDQIPELENNEKAPKVVILKKATAYILSVQAETQKLISEIDLLRKQNEQLKHKLEQLRNSCA", "modifications": "Amino acid sequence of Omomyc", "notes": "Myc dominant negative peptide"}}, "key": {"[1]": {"system": "AMO-1, HL-60, and T47D cell lines", "assay": "Omomyc cell viability assay, statements made for all three cell lines together", "assay_type": "cell-based", "settings": "48 h; ATP activity; AMO-1, HL-60, T47D", "method": "(§1) Treatment of (A) AMO-1 (plasmacytoma), (B) HL-60 (promyelocytic leukemia), and (C) T47D (breast cancer) cell lines with FPP-1.1_Omomyc protein. After 48 h incubation, cell viability was assessed by measuring ATP activity. […] Results are representative of two independent experiments. Error bars represent standard deviation from the mean of duplicate samples.\nTreatment of AMO-1 (plasmacytoma), HL-60 (promyelocytic leukemia), and T47D (breast cancer) cell lines with FPP1.1_Omomyc or small molecule inhibitors. After a 48 h incubation, the cell viability was assessed by measuring ATP activity. […] Results are from one independent experiment. Error bars represent standard deviation from the mean of duplicate samples.\n(§2) All assays followed manufacturer's instructions."}, "[2]": {"system": "AMO-1 (plasmacytoma)", "assay": "Omomyc cell viability assay, ATP activity", "assay_type": "cell-based", "settings": "AMO-1 cells only", "method": "as §1, §2"}}, "note": "Entries after “also recorded” stand apart in the source; their conditions may differ."}
{"molecule": "B1", "values": [{"measurement": "effect on cell viability", "setting": "[1]", "value": "no effect on cell viability; also recorded: poor potency; also recorded: minor effect on cell viability only at the highest concentrations"}, {"measurement": "doses at which a slight reduction in cell viability was seen", "setting": "[2]", "value": "above 10 μM"}]}
